These results are taken from PMC4374960 (2015).

B1: CarDNt, the 179-residue N-terminal domain of Myxococcus xanthus CarD (in pKT25) [Myxococcus xanthus] / Mxβ_(19–148), M. xanthus RNA polymerase β subunit fragment spanning residues 19 to 148 (in pUT18C) [Myxococcus xanthus] (parent complex)
chain 1: MPEGSASLQLAVGDRVVYPNQGVCRVSAIDVKEVAGQKLTFVTMRREEDGAVVMVPEGKVLAIGVRKVASAEDVEAIFTFLRSDSDKADLDWKQRARTNLDRMTQGGIMGLAEVVKGLQVLSELRPLPTKERELYDNARHLLVTEVAAALGTAEVNAEDAIDIVLFPPGRERPKRTAAE
chain 2: AKIIDIPNLINIQKQSYEKFLQADIAADKREDLGLQGVFKSVFPIRDFNETSSLEFVSYHLERPKYDVDECHQRGMTYSAPIKVVVRLVVWDKDEETGAQSIRDVKEQEVYFGEIPLMTQNGTFIINGTE

Variants of B1 are the subject of one assay. Kind of assay: BACTH analysis (β-Gal activity); Mxβ19–148 mutants in pUT18C; CarDNt in pKT25; mean and standard error of three independent experiments; parent: 2.6e+03; read off a plot.
Take chain 2 AKIIDIPNLINIQKQSYEKFLQADIAADKREDLGLQGVFKSVFPIRDFNETSSLEFVSYHLERPKYDVDECHQRGMTYSAPIKVVVRLVVWDKDEETGAQSIRAVKEQEVYFGEIPLMTQNGTFIINGTE: the response is approximately 1800.

chain 2 AKIIDIPNLINIQKQSYEKFLQADIAADKREDLGLQGVFKSVFPIRDFNETSSLEFVSYHLERPKYDVDECHQRGMTYSAPIKVVVRLVVWDKDEETGAQSIRDVAEQEVYFGEIPLMTQNGTFIINGTE: the response is approximately 2100.

As to chain 2 AKIIDIPNLINIQKQSYEKFLQADIAADKREDLGLQGVFKSVFPIRDFNETSSLEFVSYHLERPKYDVDECHQRGMTYSAPIKVVVRLVVWDKDEETGAQSIRDAKEQEVYFGEIPLMTQNGTFIINGTE, the response is approximately 610.

As to chain 2 AKIIDIPNLINIQKQSYEKFLQADIAADKREDLGLQGVFKSVFPIRDFNETSSLEFVSYHLERPKYDVDECHQRGMTYSAPIKVVVRLVVWDKDEETGAQSIRDVKAQEVYFGEIPLMTQNGTFIINGTE, the response is approximately 90.

Variants of B1 are the subject of a further assay. The assay can be described thus: BACTH analysis (β-Gal activity); CarDNt mutants in pKT25; Mxβ19–148 in pUT18C; mean and standard error of three independent experiments; parent: 2.7e+03; read off a plot.
In the case of chain 1 MPEGSASLQLAVGDRVVYPNQGVCRVSAIDVKEVAGQKLTFVTMRREEDGAVVAVPEGKVLAIGVRKVASAEDVEAIFTFLRSDSDKADLDWKQRARTNLDRMTQGGIMGLAEVVKGLQVLSELRPLPTKERELYDNARHLLVTEVAAALGTAEVNAEDAIDIVLFPPGRERPKRTAAE, the response is approximately 130.

Take chain 1 MPEGSASLQLAVGDRVVYPNQGVCRVSAIDVKEVAGQKLTFVTMRREEDGAVVMVAEGKVLAIGVRKVASAEDVEAIFTFLRSDSDKADLDWKQRARTNLDRMTQGGIMGLAEVVKGLQVLSELRPLPTKERELYDNARHLLVTEVAAALGTAEVNAEDAIDIVLFPPGRERPKRTAAE: the response is approximately 230.

chain 1 MPEGSASLQLAVGDRVVYPNQGVCRVSAIDVKEVAGQKLTAVTMRREEDGAVVMVPEGKVLAIGVRKVASAEDVEAIFTFLRSDSDKADLDWKQRARTNLDRMTQGGIMGLAEVVKGLQVLSELRPLPTKERELYDNARHLLVTEVAAALGTAEVNAEDAIDIVLFPPGRERPKRTAAE: the response was approximately 130.
